B1: VTI1B (parent)
chain: NKLLLSIIILLELAILGGLVYYKF

Variants of: B1
Assay: protein stability index of a GFP-peptide fusion (GPS, HEK-293T) (PSI 1-6); higher = more stable
Details: c terminus: a fixed tail appended
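Also: lentivirally expressed fusions sorted by FACS into six bins by GFP to DsRed ratio, PSI derived from sequencing read proportions per bin multiplied by bin number.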

Protein stability index, by site and new letter:
L16: I 1.99 | W 2.31 | D 2.8 | H 4.31 | V 2.62 | T 2.9 | R 2.77 | N 2.9 | G 3.79 | P 2.27 | M 3.6 | Q 3.17 | C 2.13 | F 2.62 | K 3.6 | S 2.23 | A 4.1
L10: E 3.16 | P 3.62 | D 2.71 | G 2.46 | M 2.86 | Q 1.98 | R 2.63 | Y 2.8 | S 4.51 | T 1.93 | V 3.92 | I 2.55 | K 3.36 | N 2.09 | W 3.4 | H 3.04 | A 2.44 | F 2.6 | C 3.11
L11: E 3.84 | H 4.16 | G 2.94 | Q 3.26 | C 2.36 | T 2.53 | D 3.12 | V 1.49 | K 2.59 | F 2.39 | M 3.36 | N 3.97 | S 3.88 | W 3.2 | P 2.43 | R 3.68
I8: W 2.33 | L 3.04 | M 2.81 | N 3.11 | T 3.41 | Q 3.49 | K 2.87 | S 3.02 | Y 3.31 | P 2.61 | R 1.95 | V 2.56 | H 4.21 | G 1.21
G17: I 2.35 | N 2.64 | H 2.42 | E 3.26 | L 3.46 | P 2.58 | S 3.45 | C 3.4 | F 3.71 | D 1.51 | Q 3.08 | R 2.35 | K 3.17
I15: M 3.49 | Q 2.44 | F 2.06 | W 2.18 | E 2.52 | K 3.29 | C 2.38 | G 3.52 | H 2.83 | L 2.62 | P 3.21 | R 2.12 | D 3.64 | S 3 | V 4.17 | N 1.43 | T 2.54
I9: S 4.04 | Y 2.38 | W 1.51 | T 2.58 | R 3.19 | K 3.22 | N 3.49 | E 2.85 | Q 3.18 | G 2.8 | D 3.1 | V 3.42 | H 2.47 | P 3.12 | M 3.54 | C 2.97 | F 2.03 | L 2.16
A14: W 3.4 | F 3.19 | P 2.64 | C 2.98 | K 2.48 | G 3.17 | R 3.34 | Q 3.3 | M 2.43 | S 2.35 | I 1.84 | E 3.15 | N 2.81 | L 3.61 | Y 3.19 | H 3.82
E12: W 1.82 | P 2.64 | M 2.4 | S 2.68 | F 2.17 | H 2.64 | D 2.99 | T 2.87 | A 2.13 | L 2.33 | R 2.18 | V 2.85 | N 1.44 | K 2.66 | C 2.57 | Y 2.01 | I 2.73 | G 1.55 | Q 3.45
L13: I 3.27 | H 3.39 | Q 2.92 | R 3.24 | F 3.1 | D 2.7 | T 3.42 | Y 2.83 | E 2.44 | S 3.71 | G 3.93 | V 1.79 | N 2.58 | M 3.13 | P 3.15 | C 1.85 | W 3.72 | A 2.4
